The record followed here is patent US20200317768A1 (published 2020).

Positions count from the first letter of the chain named. Numbers in names are those of the source.

In test [1] the target is T1, human FcγRIIb extracellular domain, C-terminal His-tag (human, UniProt P31994 43-217).
T1 construct: also called FcgRIIb (human)
T1 sequence: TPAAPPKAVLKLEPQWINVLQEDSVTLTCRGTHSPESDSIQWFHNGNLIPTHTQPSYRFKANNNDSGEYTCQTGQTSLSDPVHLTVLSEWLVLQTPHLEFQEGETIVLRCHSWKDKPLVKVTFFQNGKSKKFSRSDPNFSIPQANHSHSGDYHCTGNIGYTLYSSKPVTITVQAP
Put plainly: SPR (BIACORE) 25C, antibody captured, FcgR as analyte. The procedure:
(§1) The kinetic analysis of interactions between these antibodies and FcγR was carried out using BIACORE® T200 or BIACORE® 4000 (GE Healthcare). HBS-EP+ (GE Healthcare) was used as the running buffer, and the measurement temperature was set to 25° C. A chip produced by immobilizing Protein A. Protein A/G or mouse anti-human IgG kappa light chain (BD Biosciences) onto a Series S Sensor Chip CM4 or CM5 (GE Healthcare) by the amine-coupling method was used. […] After the measurement, the antibody captured on the chip was washed off by allowing reaction with 10 mM glycine-HCl, pH1.5 and 25 mM NaOH so that the chip was regenerated and used repeatedly. The sensorgrams obtained as measurement results were analyzed by the 1:1 Langmuir binding model using the BIACORE® Evaluation Software to calculate the binding rate constant ka (L/mol/s) and dissociation rate constant kd (l/s), and the dissociation constant KD (mol/L) was calculated from these values. […] Regarding such interactions, KD values were calculated using the following 1:1 binding model described in BIACORE® T100 Software Handbook BR1006-48 Edition AE.
A general note: SPR reads the build-up and loss of mass on a sensor chip optically.

The target in test [2] is T2, human FcγRIIaR extracellular domain, C-terminal His-tag (human, UniProt P12318 34-217).
T2 construct: also called human FcγRIIa (type R); FcgRIIaR
T2 chain: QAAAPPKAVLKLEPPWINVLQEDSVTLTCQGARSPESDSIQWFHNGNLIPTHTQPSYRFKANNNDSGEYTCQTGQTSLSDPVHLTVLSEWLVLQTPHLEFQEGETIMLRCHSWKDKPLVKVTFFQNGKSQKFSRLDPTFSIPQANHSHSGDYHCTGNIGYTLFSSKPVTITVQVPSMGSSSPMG
Described as above. As to the method: as §1

For test [3], the target named is T3, cynomolgus monkey FcγRIIa3 extracellular domain, C-terminal His-tag (cynomolgus monkey).
T3 construct: also called cyno FcγRIIa3; FcgRIIa3
T3 chain: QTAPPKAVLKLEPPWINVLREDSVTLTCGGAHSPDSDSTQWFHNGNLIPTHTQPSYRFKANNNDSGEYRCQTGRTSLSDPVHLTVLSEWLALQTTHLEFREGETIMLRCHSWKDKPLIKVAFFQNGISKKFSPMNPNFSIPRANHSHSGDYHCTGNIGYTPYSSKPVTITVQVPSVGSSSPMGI
The test is described as above. The procedure: as §1

Test [4] concerns the target T4, cynomolgus monkey FcγRIIa1 extracellular domain, C-terminal His-tag (cynomolgus monkey).
T4 construct: also called cyno FcγRIIa1; FcgRIIa1
T4 chain: T3 chain with T95P, A121T, S128A, P133H, N135D
Described as above. The procedure:
as §1

In test [5] the target is T5, cynomolgus monkey FcγRIIa2 extracellular domain, C-terminal His-tag (cynomolgus monkey).
T5 construct: also called cyno FcγRIIa2; FcgRIIa2
T5 chain: T3 chain with I127K, K130N, P133H, R142Q
Described as above. The procedure:
as §1

Test [6] addresses T6, cynomolgus monkey FcγRIIb extracellular domain, C-terminal His-tag (cynomolgus monkey).
T6 construct: also called cyno FcγRIIb; cynoFcγRIIb
T6 chain: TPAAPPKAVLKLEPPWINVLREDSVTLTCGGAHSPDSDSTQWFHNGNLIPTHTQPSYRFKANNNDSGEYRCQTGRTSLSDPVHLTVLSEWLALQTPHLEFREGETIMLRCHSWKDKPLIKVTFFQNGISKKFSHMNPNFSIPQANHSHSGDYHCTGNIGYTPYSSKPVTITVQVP
The description is as above. The procedure:
as §1

The target in test [7] is T5, cynomolgus monkey FcγRIIa2 …. Put plainly: SPR; KD of SG1 / KD of variant.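 Note: relative to parent M103205H795-SG1 carrying the SG1 human heavy chain constant region.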 The procedure:
as §1

Test [8] addresses T7, human FcγRIIaH extracellular domain, C-terminal His-tag (human, UniProt P12318 34-217).
T7 construct: also called human FcγRIIa (type H); FcgRIIaH
T7 sequence: T2 chain with R134H
Put plainly: SPR (BIACORE) 25C, antibody captured, FcgR as analyte; weak binding, KD by Equation 2. The procedure: as §1
The behavior of interacting molecules according to the 1:1 binding model on BIACORE® can be described by Equation 1: Req=C·R max/(KD+C)+RI, wherein, Req is a plot of steady-state binding levels to analyte concentration. […]

B1: MS_M103205H795-SG1/M103202L889-SK1 (antibody, human IgG1, kappa)
heavy: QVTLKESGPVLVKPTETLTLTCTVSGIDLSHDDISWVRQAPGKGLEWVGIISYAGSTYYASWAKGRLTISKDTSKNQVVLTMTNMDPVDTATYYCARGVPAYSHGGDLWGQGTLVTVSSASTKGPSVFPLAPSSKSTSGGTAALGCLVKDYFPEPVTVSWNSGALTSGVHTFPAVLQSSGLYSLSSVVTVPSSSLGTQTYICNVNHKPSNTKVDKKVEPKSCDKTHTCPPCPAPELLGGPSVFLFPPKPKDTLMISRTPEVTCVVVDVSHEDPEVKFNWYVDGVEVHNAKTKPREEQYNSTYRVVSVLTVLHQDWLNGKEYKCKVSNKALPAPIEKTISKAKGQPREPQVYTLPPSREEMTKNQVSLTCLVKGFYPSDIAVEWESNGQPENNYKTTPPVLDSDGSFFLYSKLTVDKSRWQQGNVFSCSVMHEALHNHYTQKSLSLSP
light: DIVMTQSPATLSLSPGERATLSCTSSQSVYHANWLSWFQQKPGQPPKLLIYWASTLAYGVPSRFSGSGSGTDFTLTISSLQPEDAATYYCAGGYGGGRYAFGQGTKVEIKRTVAAPSVFIFPPSDEQLKSGTASVVCLLNNFYPREAKVQWKVDNALQSGNSQESVTEQDSKDSTYSLSSTLTLSKADYEKHKVYACEVTHQGLSSPVTKSFNRGEC
notes: also called MS1032LO06-SG1
As for B1, the Kd – broadly, the constant that tells how readily two partners part at equilibrium – in test [1] came out at 4.7 µM; in test [2] it was 1.4 µM; in test [3], 15 µM; in test [4], 4.2 µM; in test [5], 5.2 µM; in test [6], 1.7 µM. Further, the “KD fold (SG1 = 1)” value in test [7] was determined as 1 fold.

B2: M103205H795-MY009/M103202L889-SK1 (antibody, human IgG1, kappa)
heavy: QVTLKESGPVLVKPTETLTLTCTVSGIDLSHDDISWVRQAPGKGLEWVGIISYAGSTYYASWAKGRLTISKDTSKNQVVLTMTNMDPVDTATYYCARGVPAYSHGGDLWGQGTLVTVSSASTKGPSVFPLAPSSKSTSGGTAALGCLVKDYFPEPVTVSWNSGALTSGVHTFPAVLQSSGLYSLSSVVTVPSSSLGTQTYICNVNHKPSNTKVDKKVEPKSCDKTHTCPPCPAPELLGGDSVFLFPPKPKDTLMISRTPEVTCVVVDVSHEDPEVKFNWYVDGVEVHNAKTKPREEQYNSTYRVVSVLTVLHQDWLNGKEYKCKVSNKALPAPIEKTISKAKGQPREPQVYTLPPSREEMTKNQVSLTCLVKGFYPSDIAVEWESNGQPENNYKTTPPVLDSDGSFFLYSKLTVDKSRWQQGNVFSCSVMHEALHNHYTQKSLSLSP
light: B1 light
notes: CH MY009 = SG1 with P238D (EU numbering); also called MS1032LO06-MY009
On to B2, for which the Kd in test [8] stood at 75 µM; in test [1] it was 1.4 µM; in test [2], 20 µM; in test [3], 31 µM; in test [4], 25 µM; in test [5], 26 µM. Besides, in test [6], the affinity, expressed as Kd, was 4.9 µM. In test [7], the “KD fold (SG1 = 1)” value worked out at 0.2 fold.
